In the assay the target is Complex III (cytochrome bc1 complex) dimer of the ΔQCR6 yeast supercomplex (Saccharomyces cerevisiae) (UniProt P07143). Kind of assay: cryo-EM structure.

In general, stoichiometry N refers to a count of units in the complex or per binding partner. In turn, “Complex III (cytochrome bc1 complex) dimer of the ΔQCR6 yeast supercomplex (from UniProt P07143 62-309)” yielded a stoichiometry N of 2.

(Values after paper PMC13031426.)
